Results published in paper PMC2775897.

Target: axonemes (purified from sea urchin sperm flagella) (sea urchin)
Assay: single-molecule fluorescence microscopy

dwell time: 170 ms
Substance: DNA-kinesin monomer K336 333C_10 bp (from UniProt P33176 1-336)
